Assay results published in patent US20030126647A1 (published 2003).

T1: full-length FIS2 polypeptide (Arabidopsis thaliana, UniProt P0DKJ7 1-813, limits assumed)
T1 construct: The full-length FIS2 cDNA was cloned into pGBT9 and pGAD424; the vector-encoded fusion domain is not included
T1 sequence: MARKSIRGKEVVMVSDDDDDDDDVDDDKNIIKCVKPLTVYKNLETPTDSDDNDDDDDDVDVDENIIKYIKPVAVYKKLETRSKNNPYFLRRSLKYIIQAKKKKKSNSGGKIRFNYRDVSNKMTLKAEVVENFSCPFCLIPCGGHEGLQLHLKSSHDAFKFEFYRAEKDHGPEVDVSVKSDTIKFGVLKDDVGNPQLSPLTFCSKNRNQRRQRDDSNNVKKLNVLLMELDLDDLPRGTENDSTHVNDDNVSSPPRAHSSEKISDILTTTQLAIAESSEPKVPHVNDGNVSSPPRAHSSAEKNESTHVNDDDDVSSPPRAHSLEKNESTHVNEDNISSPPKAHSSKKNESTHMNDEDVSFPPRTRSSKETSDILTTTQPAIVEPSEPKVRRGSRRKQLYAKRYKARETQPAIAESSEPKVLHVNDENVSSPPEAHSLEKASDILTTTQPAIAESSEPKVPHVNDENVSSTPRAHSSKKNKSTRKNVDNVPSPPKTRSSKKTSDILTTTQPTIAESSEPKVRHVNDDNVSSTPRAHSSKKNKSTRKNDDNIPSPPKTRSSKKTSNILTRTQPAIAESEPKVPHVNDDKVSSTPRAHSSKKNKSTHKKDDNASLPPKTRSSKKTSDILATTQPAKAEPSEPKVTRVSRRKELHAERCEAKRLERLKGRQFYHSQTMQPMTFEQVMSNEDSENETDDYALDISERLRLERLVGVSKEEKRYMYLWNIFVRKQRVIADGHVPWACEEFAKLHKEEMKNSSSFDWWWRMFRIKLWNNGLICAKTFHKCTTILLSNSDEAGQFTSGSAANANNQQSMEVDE

B1: full-length FIS1 polypeptide (other)
chain: MEKENHEDDGEGLPPELNQIKEQIEKERFLHIKRKFELRYIPSVATHASHHQSFDLNQPAAEDDNGGDNKSLLSRMQNPLRHFSASSDYNSYEDQGYVLDEDQDYALEEDVPLFLDEDVPLLPSVKLPIVEKLPRSITWVFTKSSQLMAESDSVIGKRQIYYLNGEALELSSEEDEEDEEEDEEEIKKEKCEFSEDVDRFIWTVGQDYGLDDLVVRRALAKYLEVDVSDILERYNELKLKNDGTAGEASDLTSKTITTAFQDFADRRHCRRCMIFDCHMHEKYEPESRSSEDKSSLFEDEDRQPCSEHCYLKVRSVTEADHVMDNDNSISNKIVVSDPNNTMWTPVEKDLYLKGIEIFGRNSCDVALNILRGLKTCLEIYNYMREQDQCTMSLDLNKTTQRHNQVTKKVSRKSSRSVRKKSRLRKYARYPPALKKTTSGEAKFYKHYTPCTCKSKCGQQCPCLTHENCCEKYCGCSKDCNNRFGGCNCAIGQCTNRQCPCFAANRECDPDLCRSCPLSCGDGTLGETPVQIQCKNMQFLLQTNKKILIGKSDVHGWGAFTWDSLKKNEYLGEYTGELITHDEANERGRIEDRIGSSYLFTLNDQLEIDARRKGNEFKFLNHSARPNCYAKLMIVRGDQRIGLFAERAIEEGEELFFDYCYGPEHADWSRGREPRKTGASKRSKEARPAR
notes: Expressed in yeast from the two-hybrid vectors pGBT9 and pGAD424, so it was a fusion with the vector-encoded domain; also called MEDEA/FIS1; MEA
B2: full-length FIS3 polypeptide (other)
chain: MSKITLGNESIVGSLTPSNKKSYKVTNRIQEGKKPLYAVVFNFLDARFFDVFVTAGGNRITLYNCLGDGAISALQSYADEDKEESFYTVSWACGVNGNPYVAAGGVKGIIRVIDVNSETIHKSLVGHGDSVNEIRTQPLKPQLVITASKDESVRLWNVETGICILIFAGAGGHRYEVLSVDFHPSDIYRFASCGMDTTIKIWSMKEFWTYVEKSFTWTDDPSKFPTKFVQFPVFTASIHTNYVDCNRWFGDFILSKSVDNEILLWEPQLKENSPGEGASDVLLRYPVPMCDIWFIKFSCDLHLSSVAIGNQEGKVYVWDLKSCPPVLITKLSHNQSKSVIRQTAMSVDGSTILACCEDGTIWRWDVITK
notes: The full-length FIS3 cDNA was cloned into pGBT9 and pGAD424; the vector-encoded fusion domain is not included; also called FIE
B3: FIS1 deletion mutant Bcl (320 amino acid polypeptide comprising the A and C5 regions only) (other)
chain: MEKENHEDDGEGLPPELNQIKEQIEKERFLHIKRKFELRYIPSVATHASHHQSFDLNQPAAEDDNGGDNKSLLSRMQNPLRHFSASSDYNSYEDQGYVLDEDQDYALEEDVPLFLDEDVPLLPSVKLPIVEKLPRSITWVFTKSSQLMAESDSVIGKRQIYYLNGEALELSSEEDEEDEEEDEEEIKKEKCEFSEDVDRFIWTVGQDYGLDDLVVRRALAKYLEVDVSDILERYNELKLKNDGTAGEASDLTSKTITTAFQDFADRRHCRRCMIFDCHMHEKYEPESRSSEDKSSLFEDEDRQPCSEHCYLKVRSVTEAD
notes: Expressed as a yeast two-hybrid vector fusion (pGBT9 / pGAD424); the fusion domain is not included; also called delta-Bcl; truncated FIS1 having the C-terminal 369 amino acids containing the N, CXC and SET domains deleted

What was measured:
yeast two-hybrid = biological target: the molecule itself; assay: yeast two-hybrid
Description: (§1) In particular, the full-length FIS1 cDNA sequence, encoding a 689 amino acid polypeptide comprising the A, C5, N, CXC and SET domains, and the deletion mutants designated: ΔBgl, encoding a 513 amino acid polypeptide and lacking the C-terminal SET domain-encoding region; ΔBcl, encoding a 320 amino acid polypeptide and lacking the C-terminal N, CXC and SET domain-encoding regions; ΔPst, encoding a 62 amino acid polypeptide and lacking the C-terminal portion of FIS1 comprising the five domain-encoding regions; and Δ160, lacking 160 bp at the 5′-end of the FIS1 cDNA, were constructed (FIG. 27). The full-length FIS2 and FIS3 cDNAs were also used. Control constructs, employing the empty vectors pGBT9 and pGAD424, or alternatively the EzA1 cDNA, were also used. Each cDNA was cloned into each vector and yeast were transformed with vectors expressing different FIS polypeptides, in the presence of adenine selection and β-Galactosidase activation, to select for cells expressing from both constructs.

[1] = biological target: B1; assay: yeast two-hybrid
Description: as §1

[2] = biological target: T1, full-length FIS2 polypeptide; assay: yeast two-hybrid (pGBT9 / pGAD424, adenine selection and beta-galactosidase)
Description: as §1

[3] = biological target: B2; assay: yeast two-hybrid
Description: as §1

| Binder | binding result (yeast two-hybrid) | binding result [1] | binding result [2] | binding result [3] |
| --- | --- | --- | --- | --- |
| B1 | binds |  |  |  |
| B2 |  | binds | no binding |  |
| B3 |  | binds |  | binds |
